Holding throughout (experiment): IEDB peptide-MHC binding, purified MHC/competitive/radioactivity; filed as Kd, often an IC50 or EC50 that approximates it; ≥ and ≤ were set here for values at or beyond the usual limits of such assays
For assay [1], the target named is HLA-A*02:03.
For assay [2], the target named is HLA-A*02:06.
For assay [3], the target named is HLA-A*02:02.
Assay [4] deals with HLA-A*31:01.
Assay [5] concerns the target HLA-A*33:01.
Assay [6] addresses HLA-A*11:01.
The target of assay [7] is HLA-A*68:01.
For assay [8], the target named is HLA-A*03:01.
Setting [9] is: source organism: Dengue virus 2 Jamaica/1409/1983.
Where [10] appears, read: source organism: Vaccinia virus WR.
Setting [11] is: source organism: SARS coronavirus Tor2.

Some results are limits rather than exact numbers.

Usually Kd stands for the constant that tells how readily two partners part at equilibrium. Consider GLAFSIMKSV, for which the dissociation constant (Kd) in assay [1] (source organism: Dengue virus 3 Martinique/1243/1999) worked out at 0.0116 µM.
For RTLILAPTRV, in assay [2] (setting [9]), the dissociation constant (Kd) is 0.466 µM.
Turning to NVIEDITFL, the dissociation constant Kd turned out to be 0.3 µM in assay [1] (setting [10]), 0.146 µM in assay [3] (setting [10]) and 0.0258 µM in assay [2] (setting [10]).
In the same order, the values of KTANNYETI are 0.0385 µM, 0.0372 µM and 0.329 µM.
In the same order, the values of RISSSLDQT are 12.8 µM, 6.79 µM and not below 27.8 µM.
In the same order, the values of CTEETKRNI are not below 78.1 µM, not below 77.8 µM and not below 77.1 µM.
As for VLSIPPTAGI, in assay [1] (source organism: Dengue virus 4 Philippines/H241/1956), the Kd came out at 0.226 µM.
As to YAGTIKESLL, the Kd is 4.04 µM in assay [1] (setting [10]), 1.02 µM in assay [3] (setting [10]) and 1.77 µM in assay [2] (setting [10]).
Consider TLKYPIEHGI, for which the Kd in assay [2] (source organism: Homo sapiens) was not below 26.4 µM.
For LATLNTLITL, the values for the equilibrium dissociation constant (Kd) in assay [1] (setting [10]), in assay [3] (setting [10]) and in assay [2] (setting [10]) were 0.338 µM, 0.139 µM and 0.323 µM, respectively.
In the case of EVIGLTTHCT, the values for the Kd in assay [1] (setting [10]), in assay [3] (setting [10]) and in assay [2] (setting [10]) were 14.9 µM, 10.5 µM and 12.2 µM, respectively.
Taken in the same sequence, the figures for FLARKGIDT were 0.318 µM, 1.02 µM and 3.04 µM.
In the case of LAFVVFLLV, the Kd was 1.27 µM in assay [1] (setting [11]), 0.458 µM in assay [3] (setting [11]) and 0.253 µM in assay [2] (setting [11]).
Take TMWHVTRGAV: the dissociation constant Kd in assay [1] (setting [9]) stood at 0.382 µM.
In the case of RIASILSLET, the Kd was determined as 0.449 µM in assay [1] (setting [10]), 0.583 µM in assay [3] (setting [10]) and 0.751 µM in assay [2] (setting [10]).
Taken in the same sequence, the figures for RLFTRCAVI were 0.249 µM, 0.0938 µM and 2.82 µM.
Taken in the same sequence, the figures for TVKNVDIIDL were 8.31 µM, not below 31.3 µM and 12.4 µM.
In the same order, the values of LAIKNYYRKT are 7.18 µM, not below 36.8 µM and not below 69.8 µM.
Regarding SANMDWRSLT, the results for the Kd in assay [1] (setting [10]), in assay [3] (setting [10]) and in assay [2] (setting [10]) were 11.3 µM, 1.79 µM and not below 48 µM, respectively.
Taken in the same sequence, the figures for NVFISPASI were 0.000727 µM, 0.202 µM and 0.66 µM.
Taken in the same sequence, the figures for NTVGMSIVCI were 1.54 µM, 3.02 µM and 1.21 µM.
For the sequence GLSDRVVFV, the Kd in assay [1] (setting [11]) amounted to 0.00107 µM; in assay [3] (setting [11]) it was 0.00104 µM; in assay [2] (setting [11]), 0.0686 µM.
With RIITILQDI, the results for the Kd in assay [1] (setting [10]), in assay [3] (setting [10]) and in assay [2] (setting [10]) were 0.00557 µM, 0.583 µM and 0.00201 µM, respectively.
Taken in the same sequence, the figures for MIGNYFSGVL were 0.761 µM, 0.712 µM and 1.31 µM.
In the same order, the values of AINKCVDIFT are not below 26.4 µM, not below 25.3 µM and not below 38.6 µM.
In the same order, the values of VTKRDESSI are 2.14 µM, 8.05 µM and not below 38.3 µM.
Turning to GLKALYETEL, the Kd in assay [2] (source organism: Homo sapiens) was not below 71.2 µM.
As to ALCESITLA, in assay [1] (source organism: Dengue virus 1 Brazil/97-11/1997), the Kd was 0.0173 µM.
On to VTYTEIEPK, for which the dissociation constant (Kd) was 1.36 µM in assay [4] (setting [11]); not below 25.7 µM in assay [5] (setting [11]); 0.00749 µM in assay [6] (setting [11]); 0.147 µM in assay [7] (setting [11]); 0.0312 µM in assay [8] (setting [11]).
KIDKLTFQIY: the dissociation constant (Kd) is 3.41 µM in assay [4] (setting [10]); 13 µM in assay [5] (setting [10]); 17.5 µM in assay [6] (setting [10]); 1.48 µM in assay [7] (setting [10]); 1.27 µM in assay [8] (setting [10]).
Regarding VLIFILLTA, the Kd in assay [1] (source organism: Dengue virus 2 Peru/IQT2913/1996) stood at 0.14 µM.
As to HVLGRLITV, the equilibrium dissociation constant (Kd) in assay [2] (setting [9]) worked out at 0.00884 µM.
Regarding TQVYIAVNDK, the Kd in assay [4] (setting [11]) amounted to 6.72 µM; in assay [5] (setting [11]), 9.36 µM; in assay [6] (setting [11]), 0.72 µM; in assay [7] (setting [11]), 1.33 µM; in assay [8] (setting [11]), 0.186 µM.
Regarding SACANGWIQY, the Kd in assay [4] (setting [10]) was not below 55 µM; in assay [5] (setting [10]) it was not below 40.5 µM; in assay [6] (setting [10]) it was 0.059 µM; in assay [7] (setting [10]) it was 2.89 µM; in assay [8] (setting [10]), 1.2 µM.
Taken in the same sequence, the figures for ILARNEEGR were 4.57 µM, 1.05 µM, not below 77.9 µM, 0.087 µM and 16.6 µM.
On to VSTCFKLMLK, for which the Kd in assay [4] (setting [11]) turned out to be 0.806 µM; in assay [5] (setting [11]), 5.7 µM; in assay [6] (setting [11]), 0.0153 µM; in assay [7] (setting [11]), 0.472 µM; in assay [8] (setting [11]), 0.112 µM.

The values are drawn from the Immune Epitope Database (IEDB).
